Data as given in US20240034816A1 (Sanofi, published 2024).

Tests used:
[1] = molecular target: T1, recombinant human NKp46 extracellular domain (Gln22-Asn255) with C-terminal 6xHis tag (human, UniProt O76036 22-255); test: SPR (Biacore 8K), NKCE captured by anti-human Fc, antigen as analyte, 1:1 model; mean of 3 experiments
T1 construct: range 22-255; also called huNKp46
Method: (§1) Measurements were performed in multicycle kinetics experiments for each antibody using a Biacore 8K instrument. In each multicycle experiment the antibodies were captured via an anti-hum a Fc antibody immobilized on a series S CM5 sensor chip (human antibody capture kit, Cytiva, Uppsala, Catalog No. BR1008-39).
(§2) The antigens, diluted as described above (concentration range 0.1 nM to 50 nM), were injected at a flow rate of 60 μL/min for 240 sec followed by a dissociation phase of 400 sec. All analyte concentrations were run in duplicate together with multiple buffer blanks for double referencing. Regeneration of the capture surface was performed with regeneration solution (3 mol/L MgCl2) for 60 sec at 30 μL/min. Binding kinetics data were evaluated with the Biacore 8K Evaluation Software version 1.1.1.7442 using a 1:1 binding model with mass transport limitation.

[2] = molecular target: T2, recombinant cynomolgus NKp46 extracellular domain with C-terminal Flag-M2 tag (cynomolgus, UniProt Q95JB9 22-254); test: as above
T2 construct: range 22-254; also called cyno NKp46; not shown: C-terminal Flag-M2 tag
Method: as §1, §2

recombinant human BCMA [3] = molecular target: T3, recombinant human BCMA (human, UniProt Q02223 1-54); test: as above
Method: as §1, §2

cyno BCMA (PPB-17990) [4] = molecular target: T4, cyno BCMA (PPB-17990) (cynomolgus, UniProt A0A2K5UD97 1-53); test: as above
T4 construct: also called cynomolgus BCMA
Method: as §1, §2

[5] = molecular target: T5, human CD32a (human FcγRIIA) (human, UniProt P12318 34-217, limits assumed); test: SPR, fit Steady State Affinity, Exp No 2
T5 construct: also called HuFcyRIIa
T5 sequence (looked up): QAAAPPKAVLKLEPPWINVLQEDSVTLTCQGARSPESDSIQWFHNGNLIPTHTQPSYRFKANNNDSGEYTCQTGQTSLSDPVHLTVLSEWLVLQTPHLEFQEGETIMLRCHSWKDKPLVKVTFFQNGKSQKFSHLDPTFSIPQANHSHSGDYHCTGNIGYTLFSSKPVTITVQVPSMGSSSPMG

cynomolgus CD32a = molecular target: T6, cynomolgus CD32a (cynomolgus); test: SPR, fit Steady State Affinity, Exp No 2
T6 construct: also called CyFcyRIIa

cynomolgus CD32b = molecular target: T7, cynomolgus CD32b (cynomolgus); test: SPR, fit Steady State Affinity, Exp No 2
T7 construct: also called CyFcyRIIb

[6] = molecular target: T8, human CD32b (human FcγRIIB) (human, UniProt P31994 43-217, limits assumed); test: SPR, fit Steady State Affinity, Exp No 2
T8 construct: also called HuFcyRIIb
T8 sequence (looked up): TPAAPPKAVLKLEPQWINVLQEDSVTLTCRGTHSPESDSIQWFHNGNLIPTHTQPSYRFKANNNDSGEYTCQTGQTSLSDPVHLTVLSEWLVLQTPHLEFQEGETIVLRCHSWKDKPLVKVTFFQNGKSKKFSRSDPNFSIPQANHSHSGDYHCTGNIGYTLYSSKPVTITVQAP

[7] = molecular target: T9, human CD16b (human FcgRIIIB) (human, UniProt O75015 17-200, limits assumed); test: SPR, fit Steady State Affinity, Exp No 2
T9 construct: also called HuFcyRIIIb

recombinant human BCMA [8] = molecular target: T3, recombinant human BCMA; test: SPR (Biacore 8K), NKCE captured by anti-human Fc, antigen as analyte, 1:1 model; Experiment No 1
Method: as §1, §2

cyno BCMA (PPB-17990) [9] = molecular target: T4, cyno BCMA (PPB-17990); test: as above
Method: as §1, §2

human CD64 (human FcγRI) = molecular target: T10, human CD64 (human FcγRI) (human, UniProt P12314 16-292, limits assumed); test: SPR, fit 1:1 Binding, Exp No 1
T10 construct: also called HuFcyRI

[10] = molecular target: T1, recombinant human NKp46 extracellular …; test: SPR (Biacore 8K), NKCE captured by anti-human Fc, antigen as analyte, 1:1 model; Experiment No 3
Method: as §1, §2

[11] = molecular target: T2, recombinant cynomolgus NKp46 …; test: as above
Method: as §1, §2

recombinant human BCMA [12] = molecular target: T3, recombinant human BCMA; test: as above
Method: as §1, §2
Target sequence in this assay (Q02223 1-54 limits assumed): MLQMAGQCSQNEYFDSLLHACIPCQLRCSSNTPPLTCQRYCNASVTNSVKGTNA

cyno BCMA (PPB-17990) [13] = molecular target: T4, cyno BCMA (PPB-17990); test: as above
Method: as §1, §2

[14] = molecular target: T11, human CD16a (human FcγRIIIA), V isoform (human, UniProt P08637 17-208); test: SPR (Biacore T200), His-tagged huCD16a captured by anti-His antibody on CM5 chip, antibody injected at 5.8-3000 nmol/L, steady state fit
T11 construct: also called HuFcyRIIIaV; CD16a (V176)
From the text: All analyte concentrations were run in duplicate together with multiple buffer blanks for double referencing.

T2 sequence (Q95JB9 22-254): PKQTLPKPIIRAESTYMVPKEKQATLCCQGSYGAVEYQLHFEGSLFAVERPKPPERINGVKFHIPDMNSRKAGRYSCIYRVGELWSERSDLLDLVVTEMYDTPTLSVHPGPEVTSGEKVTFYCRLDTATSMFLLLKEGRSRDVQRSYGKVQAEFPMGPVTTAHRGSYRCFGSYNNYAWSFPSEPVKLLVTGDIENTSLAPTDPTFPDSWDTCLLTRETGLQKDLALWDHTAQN
T4 sequence (A0A2K5UD97 entry or part of it): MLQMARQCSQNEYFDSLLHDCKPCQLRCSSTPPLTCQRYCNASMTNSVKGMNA
T1 sequence (O76036 other isoform, or with tags, fused parts or gaps limits assumed): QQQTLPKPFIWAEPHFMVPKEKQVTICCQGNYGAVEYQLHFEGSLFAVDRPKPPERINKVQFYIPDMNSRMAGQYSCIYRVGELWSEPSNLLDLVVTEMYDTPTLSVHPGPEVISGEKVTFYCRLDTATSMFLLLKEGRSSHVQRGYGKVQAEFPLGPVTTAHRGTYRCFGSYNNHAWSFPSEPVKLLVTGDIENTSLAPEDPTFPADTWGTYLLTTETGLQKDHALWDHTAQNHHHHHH
T11 sequence (P08637 17-208 F176V limits assumed): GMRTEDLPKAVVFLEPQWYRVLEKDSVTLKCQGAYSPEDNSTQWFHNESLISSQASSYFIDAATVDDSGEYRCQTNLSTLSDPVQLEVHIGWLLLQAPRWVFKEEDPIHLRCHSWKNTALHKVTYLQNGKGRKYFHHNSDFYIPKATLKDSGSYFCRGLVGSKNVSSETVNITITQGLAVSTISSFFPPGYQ
T9 sequence (O75015 17-200 limits assumed): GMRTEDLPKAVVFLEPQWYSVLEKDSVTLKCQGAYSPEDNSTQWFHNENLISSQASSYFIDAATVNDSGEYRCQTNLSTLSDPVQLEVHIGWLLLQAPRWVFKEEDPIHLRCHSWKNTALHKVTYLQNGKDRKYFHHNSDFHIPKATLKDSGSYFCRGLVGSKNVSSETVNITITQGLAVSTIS
T10 sequence (P12314 16-292 limits assumed): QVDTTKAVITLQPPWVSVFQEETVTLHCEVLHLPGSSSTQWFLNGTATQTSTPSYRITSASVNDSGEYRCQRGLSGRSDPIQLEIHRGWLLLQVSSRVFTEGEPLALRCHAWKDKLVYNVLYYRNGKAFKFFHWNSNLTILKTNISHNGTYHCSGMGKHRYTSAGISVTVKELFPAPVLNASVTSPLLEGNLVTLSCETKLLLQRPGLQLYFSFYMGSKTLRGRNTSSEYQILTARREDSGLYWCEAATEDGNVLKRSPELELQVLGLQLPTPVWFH

B1: NKp46-BCMA_Fc-ADE-DSB NKCE (bispecific antibody, human IgG1, kappa)
light: QTVVTQEPSLTVSPGGTVTLTCASSTGTVTPSNYANWVQQKPGQAFRGLIGDNNSRPPGTPARFSASLLGGKAALTLSGVQPEDEAEYYCALWFGNQWVFGGGTKLTVLGGGGSGGGGSDIQMTQSPSSLSASVGDRVTITCRASQDISNYLNWYQQKPGKAPKLLIYYTSRLHSGVPSRFSGSGSGTDFTFTISSLQPEDIATYFCQQGNTRPWTFGGGTKVEIKGGGGSGGGGSRTVAAPSVFIFPPSDEQLKSGTASVVCLLNNFYPREAKVQWKVDNALQSGNSQESVTEQDSKDSTYSLSSTLTLSKADYEKHKVYACEVTHQGLSSPVTKSFNRGEC
heavy: QVQLVQSGAEVKKPGSSVKVSCKASGYTFSDYVINWVRQAPGQGLEWMGEIYPGSGTNYYNEKFKAKATITADKSTSTAYMELSSLRSEDTAVYYCARRGRYGLYAMDYWGQGTTVTVSSQVQLVESGGGVVQPGRSLRLSCAASGFTFSNFGMHWVRQAPGRGLEWVAVIWSDETNRYYADSVKGRFTVSRDNVKSTVYLQMNSLISEDTAVYYCARDQQYCSSDSCFTWFDPWGQGTLVTVSSASTKGPSVFPLAPSSKSTSGGTAALGCLVKDYFPEPVTVSWNSGALTSGVHTFPAVLQSSGLYSLSSVVTVPSSSLGTQTYICNVNHKPSNTKVDKKVEPKSCDKTHTCPPCPAPELLAGPDVFLFPPKPKDTLMISRTPEVTCVVVDVSHEDPEVKFNWYVDGVEVHNAKTKPCEEQYNSTYRCVSVLTVLHQDWLNGKEYKCKVSNKALPAPEEKTISKAKGQPREPQVYTLPPCRDELTKNQVSLWCLVKGFYPSDIAVEWESNGQPENNYKTTPPVLDSDGSFFLYSKLTVDKSRWQQGNVFSCSVMHEALHNHYTQKSLSLSPG
chain: DKTHTCPPCPAPELLAGPDVFLFPPKPKDTLMISRTPEVTCVVVDVSHEDPEVKFNWYVDGVEVHNAKTKPCEEQYNSTYRCVSVLTVLHQDWLNGKEYKCKVSNKALPAPEEKTISKAKGQPREPQVCTLPPSRDELTKNQVSLSCAVKGFYPSDIAVEWESNGQPENNYKTTPPVLDSDGSFFLVSKLTVDKSRWQQGNVFSCSVMHEALHNRFTQKSLSLSPG
Kd [1]: 12.5 nM | Kd [2]: 16.9 nM | Kd (recombinant human BCMA [3]): 0.2 nM | Kd (cyno BCMA (PPB-17990) [4]): 0.3 nM | Kd [5]: 656 nM | Kd (cynomolgus CD32a): 1440 nM | Kd (cynomolgus CD32b): 1070 nM | Kd [6]: 1060 nM | Kd [7]: 1690 nM | Kd (recombinant human BCMA [8]): 0.2 nM | koff (recombinant human BCMA [8]): 6.1e-05 s⁻¹ | kon (recombinant human BCMA [8]): 280000 M⁻¹ s⁻¹ | Kd (cyno BCMA (PPB-17990) [9]): 0.4 nM | koff (cyno BCMA (PPB-17990) [9]): 7.2e-05 s⁻¹ | kon (cyno BCMA (PPB-17990) [9]): 170000 M⁻¹ s⁻¹ | Kd (human CD64 (human FcγRI)): 0.32 nM | Kd [10]: 12.5 nM | koff [10]: 0.0018 s⁻¹ | kon [10]: 140000 M⁻¹ s⁻¹ | Kd [11]: 17.8 nM | koff [11]: 0.0033 s⁻¹ | kon [11]: 190000 M⁻¹ s⁻¹ | Kd (recombinant human BCMA [12]): 0.3 nM | koff (recombinant human BCMA [12]): 5.7e-05 s⁻¹ | kon (recombinant human BCMA [12]): 190000 M⁻¹ s⁻¹ | Kd (cyno BCMA (PPB-17990) [13]): 0.3 nM | koff (cyno BCMA (PPB-17990) [13]): 6e-05 s⁻¹ | kon (cyno BCMA (PPB-17990) [13]): 180000 M⁻¹ s⁻¹ | Kd [14]: 165 nM
